Reference: patent publication US20100129369A1 (Eli Lilly, published 2010)

Tests used:
Assay in all cases: cell-based or functional assay
[1] = target: T1, human c-Met (human, UniProt P08581 25-1390)
[2] = target: T1, human c-Met; remark: listed apart in the source
[3] = target: T1, human c-Met; remark: listed apart in the source
[4] = target: T1, human c-Met; remark: listed apart in the source

T1 sequence (P08581 25-1390): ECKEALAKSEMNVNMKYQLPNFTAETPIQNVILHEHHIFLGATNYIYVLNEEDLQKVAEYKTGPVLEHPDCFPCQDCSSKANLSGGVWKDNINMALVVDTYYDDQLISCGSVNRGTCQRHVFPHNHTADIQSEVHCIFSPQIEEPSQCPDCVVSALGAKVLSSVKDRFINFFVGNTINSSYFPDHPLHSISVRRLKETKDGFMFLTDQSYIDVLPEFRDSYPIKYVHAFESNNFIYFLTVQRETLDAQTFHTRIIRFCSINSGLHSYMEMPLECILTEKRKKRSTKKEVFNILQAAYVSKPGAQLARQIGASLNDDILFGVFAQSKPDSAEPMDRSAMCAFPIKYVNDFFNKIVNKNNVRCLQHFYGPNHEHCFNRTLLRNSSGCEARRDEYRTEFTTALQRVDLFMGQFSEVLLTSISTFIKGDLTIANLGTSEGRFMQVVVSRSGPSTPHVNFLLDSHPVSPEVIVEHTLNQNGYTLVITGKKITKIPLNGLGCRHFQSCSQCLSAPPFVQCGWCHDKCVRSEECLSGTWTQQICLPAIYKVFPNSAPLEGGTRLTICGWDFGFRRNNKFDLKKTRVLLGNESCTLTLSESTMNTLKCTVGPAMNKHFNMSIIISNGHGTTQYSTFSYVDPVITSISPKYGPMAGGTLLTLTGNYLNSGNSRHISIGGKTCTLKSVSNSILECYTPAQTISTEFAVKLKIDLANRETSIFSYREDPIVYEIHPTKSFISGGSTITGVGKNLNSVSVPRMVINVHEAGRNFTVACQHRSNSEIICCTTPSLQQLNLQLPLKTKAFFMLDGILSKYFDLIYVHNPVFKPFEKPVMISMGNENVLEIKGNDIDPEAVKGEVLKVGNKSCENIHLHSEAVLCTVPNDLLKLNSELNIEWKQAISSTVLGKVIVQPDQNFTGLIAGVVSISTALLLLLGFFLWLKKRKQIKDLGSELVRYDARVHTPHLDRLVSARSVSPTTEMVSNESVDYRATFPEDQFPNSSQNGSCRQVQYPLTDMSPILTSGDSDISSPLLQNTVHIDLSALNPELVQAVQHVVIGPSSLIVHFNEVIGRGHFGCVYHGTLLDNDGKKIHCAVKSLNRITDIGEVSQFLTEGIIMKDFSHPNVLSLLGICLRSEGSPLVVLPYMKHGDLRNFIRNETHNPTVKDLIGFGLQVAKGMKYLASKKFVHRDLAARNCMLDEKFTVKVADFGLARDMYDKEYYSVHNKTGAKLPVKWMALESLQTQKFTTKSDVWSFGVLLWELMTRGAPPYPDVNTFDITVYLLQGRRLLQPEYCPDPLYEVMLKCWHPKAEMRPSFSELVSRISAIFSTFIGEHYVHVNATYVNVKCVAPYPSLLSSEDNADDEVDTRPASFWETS

3H-Thymidine Incorporation in Caki-1 Cells in the Absence of HGF (AVG CPM), antibody dose 0.1 ng/mL [1]: 15300 CPM | 3H-Thymidine Incorporation in Caki-1 Cells in the Absence of HGF (AVG CPM), antibody dose 0.4 ng/mL [1]: 14400 CPM | 3H-Thymidine Incorporation in Caki-1 Cells in the Absence of HGF (AVG CPM), antibody dose 2.6 ng/mL [1]: 14100 CPM | 3H-Thymidine Incorporation in Caki-1 Cells in the Absence of HGF (AVG CPM), antibody dose 15.4 ng/mL [1]: 13500 CPM | 3H-Thymidine Incorporation in Caki-1 Cells in the Absence of HGF (AVG CPM), antibody dose 92.6 ng/mL [1]: 13700 CPM | 3H-Thymidine Incorporation in Caki-1 Cells in the Absence of HGF (AVG CPM), antibody dose 555.6 ng/mL [1]: 14000 CPM | 3H-Thymidine Incorporation in Caki-1 Cells in the Absence of HGF (AVG CPM), antibody dose 3333.3 ng/mL [1]: 15700 CPM | 3H-Thymidine Incorporation in Caki-1 Cells in the Absence of HGF (AVG CPM), antibody dose 20000.0 ng/mL [1]: 15900 CPM | 3H-Thymidine Incorporation in Primary Human Hepatocytes in the Absence of HGF (average), dose 0.0032 ug/mL [2]: 611 | 3H-Thymidine Incorporation in Primary Human Hepatocytes in the Absence of HGF (average), dose 0.016 ug/mL [2]: 715 | 3H-Thymidine Incorporation in Primary Human Hepatocytes in the Absence of HGF (average), dose 0.08 ug/mL [2]: 1120 | 3H-Thymidine Incorporation in Primary Human Hepatocytes in the Absence of HGF (average), dose 0.4 ug/mL [2]: 1230 | 3H-Thymidine Incorporation in Primary Human Hepatocytes in the Absence of HGF (average), dose 2 ug/mL [2]: 1430 | 3H-Thymidine Incorporation in Primary Human Hepatocytes in the Absence of HGF (average), dose 10 ug/mL [2]: 1700 | Percent of DU145 Cells in Colonies (scatter assay), antibody 20 ug/mL [3]: 25.6% | Staurosporine-Induced Apoptosis in Caki-1 Cells, Average A450 nm, antibody dose 3 ng/mL [4]: 1.02 A450 nm | Staurosporine-Induced Apoptosis in Caki-1 Cells, Average A450 nm, antibody dose 30 ng/mL [4]: 0.91 A450 nm | Staurosporine-Induced Apoptosis in Caki-1 Cells, Average A450 nm, antibody dose 300 ng/mL [4]: 0.81 A450 nm | Staurosporine-Induced Apoptosis in Caki-1 Cells, Average A450 nm, antibody dose 3000 ng/mL [4]: 0.91 A450 nm | Staurosporine-Induced Apoptosis in Caki-1 Cells, Average A450 nm, antibody dose 30000 ng/mL [4]: 0.87 A450 nm
B1: D11-8B8 (antibody, human IgG2, kappa, V domains shown)
VH: QVQLVQSGAEVKKPGSSVKVSCKASGYTFTSRYIHWVRQAPGQGLEWMGWIYPVTGDTYYIEKFKGRVTITADKSTSTAYMELSSLRSEDTAVYYCARGYGAFFYWGQGTLVTVSS
VL: EIVLTQSPGTLSLSPGERATLSCSVSSSISSTNLHWYQQKPGQAPRLLIYGTSYLASGIPDRFSGSGSGTDFTLTISRLEPEDFAVYYCQQWSSYPYSFGQGTKLEIKR
